From article PMC11447847
Read-outs that look alike come from different tables or passages of the source.

Assays:
CELF1 RRM1-2 [1] = target: T1, CELF1 RRM1-2 (UniProt Q92879 1-187); assay: CG-MALS
CELF1 RRM1-2 [2] = target: T1, CELF1 RRM1-2; assay: EMSA
TDP43 RRM1 [3] = target: T2, TDP43 RRM1 (UniProt Q13148 101-192); assay: CG-MALS
TDP43 RRM1 [4] = target: T2, TDP43 RRM1; assay: CG-MALS; remark: listed apart in the source

T1 sequence (Q92879 1-187): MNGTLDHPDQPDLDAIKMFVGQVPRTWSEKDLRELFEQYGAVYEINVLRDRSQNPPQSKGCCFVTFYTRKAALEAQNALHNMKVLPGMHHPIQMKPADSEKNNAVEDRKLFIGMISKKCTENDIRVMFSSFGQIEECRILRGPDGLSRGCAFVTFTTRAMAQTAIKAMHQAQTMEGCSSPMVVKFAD
T2 sequence (Q13148 101-192): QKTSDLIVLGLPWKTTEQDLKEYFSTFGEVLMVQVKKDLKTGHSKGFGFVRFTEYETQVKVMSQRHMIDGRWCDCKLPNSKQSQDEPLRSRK

Which Kd (CELF1 RRM1-2 [1]) does the source give for GUGUGUGUGUGUGUGUGUGUGUGUGUGUGUGUGUGUGUGUGUGU (ssRNA) [(GU)22 ssRNA] here?
Its Kd is 390 ± 30 nM.

Does UGUUUGUUUGUUUGUU (ssRNA) [(UGUU)4 ssRNA] bind (CELF1 RRM1-2 [2])?
Result: binds

How did the Kd (TDP43 RRM1 [3]) turn out when TGTGTGTGTGTG (ssDNA) [(TG)6 ssDNA] was run?
Its Kd is 10400 ± 3200 nM.

For GTGTGTGTGTGTGTGTGTGTGTGT (ssDNA) [(GT)12 ssDNA], which Kd (TDP43 RRM1 [4]) is on record?
Its Kd is 1340 ± 120 nM.
